Target: T1, recombinant insulin receptor ecto-domain protein rIR (R&D Systems #1444-IR) (UniProt P06213-2 28-944, limits assumed)
T1 construct: extracellular domain; Bought protein; also called soluble IR ectodomain
Assay: competitive BMEC binding assay: scFv-Fc pre-incubated with soluble ectodomain, then cell surface binding on BMECs

T1 sequence (P06213 other isoform, or with tags, fused parts or gaps limits assumed): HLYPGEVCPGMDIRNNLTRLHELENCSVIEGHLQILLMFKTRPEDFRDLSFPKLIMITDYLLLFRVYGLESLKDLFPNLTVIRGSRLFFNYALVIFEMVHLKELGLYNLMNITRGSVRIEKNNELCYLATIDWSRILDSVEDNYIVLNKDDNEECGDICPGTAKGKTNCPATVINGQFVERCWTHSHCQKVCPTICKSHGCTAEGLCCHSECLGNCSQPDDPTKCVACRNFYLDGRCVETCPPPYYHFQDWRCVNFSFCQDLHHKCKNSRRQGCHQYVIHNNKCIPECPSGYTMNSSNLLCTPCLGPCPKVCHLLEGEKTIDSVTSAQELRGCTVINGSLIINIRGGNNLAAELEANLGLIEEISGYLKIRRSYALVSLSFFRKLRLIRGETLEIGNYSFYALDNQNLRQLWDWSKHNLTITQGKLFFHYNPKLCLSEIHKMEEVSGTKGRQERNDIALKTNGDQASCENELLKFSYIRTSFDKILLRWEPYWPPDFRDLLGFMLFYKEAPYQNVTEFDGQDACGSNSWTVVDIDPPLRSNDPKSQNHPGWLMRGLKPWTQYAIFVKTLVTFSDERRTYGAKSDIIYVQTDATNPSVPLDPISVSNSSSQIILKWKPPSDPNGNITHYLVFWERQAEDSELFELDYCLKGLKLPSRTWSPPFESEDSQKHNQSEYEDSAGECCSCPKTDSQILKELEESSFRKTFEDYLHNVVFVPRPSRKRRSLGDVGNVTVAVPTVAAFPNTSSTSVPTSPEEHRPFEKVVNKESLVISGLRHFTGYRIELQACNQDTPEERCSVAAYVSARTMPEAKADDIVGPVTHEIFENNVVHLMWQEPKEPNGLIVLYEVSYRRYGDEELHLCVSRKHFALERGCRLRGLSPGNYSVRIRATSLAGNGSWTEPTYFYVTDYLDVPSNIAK

Row | Binder | binding result
1 | 46.1-scFv-Fc (Fc fusion, scFv linked directly to rabbit IgG Fc, made in HEK293F cells; dimer; also called clone 46.1 scFv-Fc; not shown: rabbit IgG Fc region (pIRES-rabbit Fc vector)) QVQLQESGGGLAQPGGSLRLSCAASGFTFSGYWMHWVRQAPGKGLVWVSRIKGDGTDIEYADSVKGRFTISRDNAKNTLYLQMNSLRAEDTAVYYCARDLRQTHWFDSWGQGTLVTVSSGGGGSGGGGSGGGGSQSALTQDPAVSVALGQTVRITCQGDSLRSYYASWYQQKPGQAPVLVMYGENSRPSGIPDRFSGSNSGNTASLIITGAQAEDEADYYCSSRDTSGNHVLFGGGTKLTVLG | no binding
2 | 17-scFv-Fc (Fc fusion, scFv linked directly to rabbit IgG Fc, made in HEK293F cells; dimer; also called clone 17 scFv-Fc; not shown: rabbit IgG Fc region (pIRES-rabbit Fc vector)) QVQLLQSAGALVQPGGSLRLSCAASGFTFSSSTMHWVRQAPGKGLEWVAVVSYDGNTQYYADSVKGRFTISRDNSKNTLSLQMNNLRAEDTAVYYCAGLWGSLLGYFQHWGQGTLVTVSSGGGGSGGGGSGGGGSDIQMTQSPSFLSASVGDRVTITCRASQGVNNYLAWYQQKPGKAPKLLIYAASTLQSGVPSSFSGSGSGTEFTLTISSLQPEDFATYFCQQAHSFPPTFGGGTKLEIKR | no binding

Reference: patent publication US20230331835A1 (WISCONSIN ALUMNI RESEARCH FOUNDATION, published 2023)
